Data on 2 proteins can be found in PMC8667043, “First-in-Class Inhibitors of the Ribosomal Oxygenase MINA53” (Journal of Medicinal Chemistry, 2021).

Substrate in data set [1]: CC[C@H](C)[C@H](NC(=O)[C@H](Cc1c[nH]cn1)NC(=O)[C@H](CCC(N)=O)NC(=O)[C@H](Cc1c[nH]cn1)NC(=O)[C@H](CC(N)=O)NC(=O)CNC(=O)CNC(=O)CNC(=O)[C@H](Cc1ccccc1)NC(=O)[C@@H]1CCCN1C(=O)[C@H](Cc1c[nH]cn1)NC(=O)[C@H](CCC(=O)O)NC(=O)[C@@H](NC(=O)[C@@H]1CCCN1C(=O)[C@@H](N)CC(N)=O)C(C)C)C(=O)NCC(=O)N[C@@H](CCCCN)C(=O)N1CCC[C@H]1C(=O)N[C@@H](CO)C(=O)N[C@H](C(=O)O)[C@@H](C)O
The data set is described as follows: Determination of enzyme kinetic parameters (MS assay). It is filed as biochemical. The note with it: other: 2OG, Fe(II): NO66 (Ser183-Asn641), n = 4; peptide: NO66 (Gln116-Asn641), n = 3; means ± 95% confidence.

Substrate in data set [2]: CC[C@H](C)[C@H](NC(=O)[C@H](CCCNC(=N)N)NC(=O)[C@H](Cc1c[nH]cn1)NC(=O)[C@H](Cc1c[nH]cn1)NC(=O)[C@H](Cc1c[nH]cn1)NC(=O)[C@H](CC(C)C)NC(=O)CNC(=O)CNC(=O)[C@H](C)NC(=O)[C@H](CC(N)=O)NC(=O)CNC(=O)[C@H](CCCNC(=N)N)NC(=O)CN)C(=O)N[C@@H](CC(N)=O)C(=O)N[C@@H](Cc1ccccc1)C(=O)N[C@@H](CC(=O)O)C(=O)N[C@@H](CCCCN)C(=O)N[C@@H](Cc1ccc(O)cc1)C(=O)N[C@@H](Cc1c[nH]cn1)C(=O)N1CCC[C@H]1C(=O)O
Described as above. The data set is classed as biochemical. Conditions: other: 2OG, Fe(II): MINA53 (Met26-Val464), n = 4; peptide: MINA53 (Met1-Val464), n = 3; means ± 95% confidence.

B1: NO66 (Homo sapiens) (protein)
chain: MDGLQASAGPLRRGRPKRRRKPQPHSGSVLALPLRSRKIRKQLRSVVSRMAALRTQTLPSENSEESRVESTADDLGDALPGGAAVAAVPDAARREPYGHLGPAELLEASPAARSLQTPSARLVPASAPPARLVEVPAAPVRVVETSALLCTAQHLAAVQSSGAPATASGPQVDNTGGEPAWDSPLRRVLAELNRIPSSRRRAARLFEWLIAPMPPDHFYRRLWEREAVLVRRQDHTYYQGLFSTADLDSMLRNEEVQFGQHLDAARYINGRRETLNPPGRALPAAAWSLYQAGCSLRLLCPQAFSTTVWQFLAVLQEQFGSMAGSNVYLTPPNSQGFAPHYDDIEAFVLQLEGRKLWRVYRPRVPTEELALTSSPNFSQDDLGEPVLQTVLEPGDLLYFPRGFIHQAECQDGVHSLHLTLSTYQRNTWGDFLEAILPLAVQAAMEENVEFRRGLPRDFMDYMGAQHSDSKDPRRTAFMEKVRVLVARLGHFAPVDAVADQRAKDFIHDSLPPVLTDRERALSVYGLPIRWEAGEPVNVGAQLTTETEVHMLQDGIARLVGEGGHLFLYYTVENSRVYHLEEPKCLEIYPQQADAMELLLGSYPEFVRVGDLPCDSVEDQLSLATTLYDKGLLLTKMPLALN
As a reminder, the Km is the concentration of substrate that gives half-maximal velocity. What is called Vmax is the rate approached at saturating substrate. As for B1, in data set [1], the Km was 19.11 ± 6.3 µM and the Vmax stood at 0.34 ± 0.05 µM/min.

B2: MINA53 (Homo sapiens) (protein)
chain: MPKKAKPTGSGKEEGPAPCKQMKLEAAGGPSALNFDSPSSLFESLISPIKTETFFKEFWEQKPLLIQRDDPALATYYGSLFKLTDLKSLCSRGMYYGRDVNVCRCVNGKKKVLNKDGKAHFLQLRKDFDQKRATIQFHQPQRFKDELWRIQEKLECYFGSLVGSNVYITPAGSQGLPPHYDDVEVFILQLEGEKHWRLYHPTVPLAREYSVEAEERIGRPVHEFMLKPGDLLYFPRGTIHQADTPAGLAHSTHVTISTYQNNSWGDFLLDTISGLVFDTAKEDVELRTGIPRQLLLQVESTTVATRRLSGFLRTLADRLEGTKELLSSDMKKDFIMHRLPPYSAGDGAELSTPGGKLPRLDSVVRLQFKDHIVLTVLPDQDQSDEAQEKMVYIYHSLKNSRETHMMGNEEETEFHGLRFPLSHLDALKQIWNSPAISVKDLKLTTDEEKESLVLSLWTECLIQVV
With B2, in data set [2], the Km came to 10.5 ± 5.5 µM and the Vmax came to 0.36 ± 0.1 µM/min.
